Here are results for one substance from paper PMC9517163.

This assay has as its target minke whale ACE2, mFc-tagged (minke whale). Put plainly: SPR. (In general: Surface plasmon resonance follows binding to a sensor surface in real time, without labels.)

A word on the Kd: it is the equilibrium constant for the complex coming apart. Low values mean higher affinity, high ones lower affinity. Turning to “SARS-CoV-2 Omicron BA.1 receptor-binding domain (RBD) (from UniProt P0DTC2) (domain or fragment)”, the dissociation constant (Kd) was 254 nM.
